From paper PMC3142617 (Cell host & microbe, 2011) come the findings set out here.

The data set “SEC-MALS” deals with the molecule itself. Nature of the data set: SEC-MALS.
The data set “AUC” deals with the molecule itself. The experiment in a line: AUC.

B1: L6TIR (L6 TIR domain, residues 29-229) (domain or fragment, flax (Linum usitatissimum))
chain: SNAKDSIVNDDDDSTSEVDAISDSTNPSGSFPSVEYEVFLSFRGPDTREQFTDFLYQSLRRYKIHTFRDDDELLKGKEIGPNLLRAIDQSKIYVPIISSGYADSKWCLMELAEIVRRQEEDPRRIILPIFYMVDPSDVRHQTGCYKKAFRKHANKFDGQTIQNWKDALKKVGDLKGWHIGKNDKQGAIADKVSADIWSHISKEN
Regarding B1, the stoichiometry N (usually the number of molecules, sites or subunits per partner or assembly) in the data set “SEC-MALS” is approximately 2. In the data set “AUC”, the Kd – broadly, the constant that tells how readily two partners part at equilibrium – was 20.3 µM and the “stoichiometry N” value turned out to be 2.
